From article PMC5034116 (Cell Research, 2016)

Target: the molecule itself
Test: crystal structure

B1: NudC (residues 1-257, E178Q), Escherichia coli, active-site mutant (enzyme, UniProt P32664 1-257, looked up)
chain: MDRIIEKLDHGWWVVSHEQKLWLPKGELPYGEAANFDLVGQRALQIGEWQGEPVWLVQQQRRHDMGSVRQVIDLDVGLFQLAGRGVQLAEFYRSHKYCGYCGHEMYPSKTEWAMLCSHCRERYYPQIAPCIIVAIRRDDSILLAQHTRHRNGVHTVLAGFVEVGETLEQAVAREVMEQSGIKVKNLRYVTSQPWPFPQSLMTAFMAEYDSGDIVIDPKELLEANWYRYDDLPLLPPPGTVARRLIEDTVAMCRAEYE
  stoichiometry N: 2
